One block for each binder: values may come before it.
Experiments:
Test in all cases: SPOT array
[1] = molecular target: T1, Boi2 SH3 (BOI2_YEAST), P39969
T1 chain: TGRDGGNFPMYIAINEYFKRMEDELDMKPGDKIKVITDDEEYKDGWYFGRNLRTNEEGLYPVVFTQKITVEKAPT

[2] = molecular target: T2, Rvs167 SH3 (RV167_YEAST), P39743
T2 chain: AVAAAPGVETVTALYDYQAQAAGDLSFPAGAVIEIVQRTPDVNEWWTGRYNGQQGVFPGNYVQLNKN

[3] = molecular target: T3, Yfr024 SH3 (LSB3_YEAST), P43603
T3 chain: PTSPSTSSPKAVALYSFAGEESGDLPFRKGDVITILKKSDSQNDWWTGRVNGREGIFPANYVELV

[4] = molecular target: T4, Yhr016c SH3 (YSC84_YEAST), P32793
T4 chain: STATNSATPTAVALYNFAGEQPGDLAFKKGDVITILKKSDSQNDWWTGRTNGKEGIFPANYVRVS

[5] = molecular target: T5, Boi1 SH3 (BOI1_YEAST), P38041
T5 chain: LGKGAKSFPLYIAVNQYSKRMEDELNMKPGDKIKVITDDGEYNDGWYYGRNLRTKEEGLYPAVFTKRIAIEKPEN

B6: YLR191W 299-312 (peptide)
chain: GSEPIDPSKLEFAR
normalised SPOT signal, Boehringer light units (BLU); mean over the file's lines of this peptide [1]: 25.3 | normalised SPOT signal, Boehringer light units (BLU); mean over the file's lines of this peptide [2]: 33 | normalised SPOT signal, Boehringer light units (BLU); mean over the file's lines of this peptide [3]: 53.6 | normalised SPOT signal, Boehringer light units (BLU); mean over the file's lines of this peptide [4]: 37.9 | normalised SPOT signal, Boehringer light units (BLU); mean over the file's lines of this peptide [5]: 57.5

B7: YKL062W 547-560 (peptide)
chain: GKVPVQPRKRKSIT
normalised SPOT signal, Boehringer light units (BLU); mean over the file's lines of this peptide [1]: 85.3 | normalised SPOT signal, Boehringer light units (BLU); mean over the file's lines of this peptide [2]: 73 | normalised SPOT signal, Boehringer light units (BLU); mean over the file's lines of this peptide [3]: 1430 | normalised SPOT signal, Boehringer light units (BLU); mean over the file's lines of this peptide [4]: 296 | normalised SPOT signal, Boehringer light units (BLU); mean over the file's lines of this peptide [5]: 242

B10: YJR025C 93-106 (peptide)
chain: GNVPHSPVRFADTV
normalised SPOT signal, Boehringer light units (BLU); mean over the file's lines of this peptide [1]: 29.6 | normalised SPOT signal, Boehringer light units (BLU); mean over the file's lines of this peptide [2]: 36.2 | normalised SPOT signal, Boehringer light units (BLU); mean over the file's lines of this peptide [3]: 0.8 | normalised SPOT signal, Boehringer light units (BLU); mean over the file's lines of this peptide [4]: 49 | normalised SPOT signal, Boehringer light units (BLU); mean over the file's lines of this peptide [5]: 115

B11: YCR073C 1268-1281 (peptide)
chain: GRIPQLPNRDEMTA
normalised SPOT signal, Boehringer light units (BLU); mean over the file's lines of this peptide [1]: 54.1 | normalised SPOT signal, Boehringer light units (BLU); mean over the file's lines of this peptide [2]: 11900 | normalised SPOT signal, Boehringer light units (BLU); mean over the file's lines of this peptide [3]: 11500 | normalised SPOT signal, Boehringer light units (BLU); mean over the file's lines of this peptide [4]: 20900 | normalised SPOT signal, Boehringer light units (BLU); mean over the file's lines of this peptide [5]: 78.4

B17: YKL204W 471-484 (peptide)
chain: GVPPNFPQRMMPPP
normalised SPOT signal, Boehringer light units (BLU); mean over the file's lines of this peptide [1]: 84.6 | normalised SPOT signal, Boehringer light units (BLU); mean over the file's lines of this peptide [2]: 58.8 | normalised SPOT signal, Boehringer light units (BLU); mean over the file's lines of this peptide [3]: 1870 | normalised SPOT signal, Boehringer light units (BLU); mean over the file's lines of this peptide [4]: 283 | normalised SPOT signal, Boehringer light units (BLU); mean over the file's lines of this peptide [5]: 58.2

B18: YDL245C 44-57 (peptide)
chain: GNTPDAPKRGFLGY
normalised SPOT signal, Boehringer light units (BLU); mean over the file's lines of this peptide [1]: 27.7 | normalised SPOT signal, Boehringer light units (BLU); mean over the file's lines of this peptide [2]: 37.1 | normalised SPOT signal, Boehringer light units (BLU); mean over the file's lines of this peptide [3]: 658 | normalised SPOT signal, Boehringer light units (BLU); mean over the file's lines of this peptide [4]: 230 | normalised SPOT signal, Boehringer light units (BLU); mean over the file's lines of this peptide [5]: 86.5

B19: YML065W 331-344 (peptide)
chain: GRKPKDPSKPRQML
normalised SPOT signal, Boehringer light units (BLU); mean over the file's lines of this peptide [1]: 42.2 | normalised SPOT signal, Boehringer light units (BLU); mean over the file's lines of this peptide [2]: 31.8 | normalised SPOT signal, Boehringer light units (BLU); mean over the file's lines of this peptide [3]: 268 | normalised SPOT signal, Boehringer light units (BLU); mean over the file's lines of this peptide [4]: 160 | normalised SPOT signal, Boehringer light units (BLU); mean over the file's lines of this peptide [5]: 147

B20: YPL025C 36-49 (peptide)
chain: GIHPGFPIRMVQYA
normalised SPOT signal, Boehringer light units (BLU); mean over the file's lines of this peptide [1]: 114 | normalised SPOT signal, Boehringer light units (BLU); mean over the file's lines of this peptide [2]: 24.6 | normalised SPOT signal, Boehringer light units (BLU); mean over the file's lines of this peptide [3]: 331 | normalised SPOT signal, Boehringer light units (BLU); mean over the file's lines of this peptide [4]: 154 | normalised SPOT signal, Boehringer light units (BLU); mean over the file's lines of this peptide [5]: 69.6

B21: YPL105C 573-586 (peptide)
chain: GIKPQQPIKVDIKG
normalised SPOT signal, Boehringer light units (BLU); mean over the file's lines of this peptide [1]: 41 | normalised SPOT signal, Boehringer light units (BLU); mean over the file's lines of this peptide [2]: 38.7 | normalised SPOT signal, Boehringer light units (BLU); mean over the file's lines of this peptide [3]: 103 | normalised SPOT signal, Boehringer light units (BLU); mean over the file's lines of this peptide [4]: 153 | normalised SPOT signal, Boehringer light units (BLU); mean over the file's lines of this peptide [5]: 115

Further lines, results first:

normalised SPOT signal, Boehringer light units (BLU); mean over the file's lines of this peptide [1]: 18.6 | normalised SPOT signal, Boehringer light units (BLU); mean over the file's lines of this peptide [2]: 50.3 | normalised SPOT signal, Boehringer light units (BLU); mean over the file's lines of this peptide [3]: 223 | normalised SPOT signal, Boehringer light units (BLU); mean over the file's lines of this peptide [4]: 493 | normalised SPOT signal, Boehringer light units (BLU); mean over the file's lines of this peptide [5]: 69.6
B1: YGL156W 66-79 (peptide)
chain: GSSPVSPDKRPSWK

normalised SPOT signal, Boehringer light units (BLU); mean over the file's lines of this peptide [1]: 30.8 | normalised SPOT signal, Boehringer light units (BLU); mean over the file's lines of this peptide [2]: 57.3 | normalised SPOT signal, Boehringer light units (BLU); mean over the file's lines of this peptide [3]: 1660 | normalised SPOT signal, Boehringer light units (BLU); mean over the file's lines of this peptide [4]: 318 | normalised SPOT signal, Boehringer light units (BLU); mean over the file's lines of this peptide [5]: 115
B2: YPL085W 915-928 (peptide)
chain: GILPLAPLRPLDPL

normalised SPOT signal, Boehringer light units (BLU); mean over the file's lines of this peptide [1]: 97.9 | normalised SPOT signal, Boehringer light units (BLU); mean over the file's lines of this peptide [2]: 4 | normalised SPOT signal, Boehringer light units (BLU); mean over the file's lines of this peptide [3]: 269 | normalised SPOT signal, Boehringer light units (BLU); mean over the file's lines of this peptide [4]: 116 | normalised SPOT signal, Boehringer light units (BLU); mean over the file's lines of this peptide [5]: 64.4
B3: YPL023C 580-593 (peptide)
chain: GVFPNSPVKQTTII

normalised SPOT signal, Boehringer light units (BLU); mean over the file's lines of this peptide [1]: 36 | normalised SPOT signal, Boehringer light units (BLU); mean over the file's lines of this peptide [2]: 197 | normalised SPOT signal, Boehringer light units (BLU); mean over the file's lines of this peptide [3]: 5740 | normalised SPOT signal, Boehringer light units (BLU); mean over the file's lines of this peptide [4]: 2770 | normalised SPOT signal, Boehringer light units (BLU); mean over the file's lines of this peptide [5]: 97.3
B4: YOR025W 379-392 (peptide)
chain: GTPPTTPLRTAQGI

normalised SPOT signal, Boehringer light units (BLU); mean over the file's lines of this peptide [1]: 44.5 | normalised SPOT signal, Boehringer light units (BLU); mean over the file's lines of this peptide [2]: 148 | normalised SPOT signal, Boehringer light units (BLU); mean over the file's lines of this peptide [3]: 768 | normalised SPOT signal, Boehringer light units (BLU); mean over the file's lines of this peptide [4]: 152 | normalised SPOT signal, Boehringer light units (BLU); mean over the file's lines of this peptide [5]: 104
B5: YDR188W 219-232 (peptide)
chain: GRHPDMPTRVKNAY

normalised SPOT signal, Boehringer light units (BLU); mean over the file's lines of this peptide [1]: 59.2 | normalised SPOT signal, Boehringer light units (BLU); mean over the file's lines of this peptide [2]: 50.1 | normalised SPOT signal, Boehringer light units (BLU); mean over the file's lines of this peptide [3]: 1730 | normalised SPOT signal, Boehringer light units (BLU); mean over the file's lines of this peptide [4]: 212 | normalised SPOT signal, Boehringer light units (BLU); mean over the file's lines of this peptide [5]: 46.1
B8: YAL010C 476-489 (peptide)
chain: GNIPVFPAKFGIQF

normalised SPOT signal, Boehringer light units (BLU); mean over the file's lines of this peptide [1]: 47.3 | normalised SPOT signal, Boehringer light units (BLU); mean over the file's lines of this peptide [2]: 12.9 | normalised SPOT signal, Boehringer light units (BLU); mean over the file's lines of this peptide [3]: 470 | normalised SPOT signal, Boehringer light units (BLU); mean over the file's lines of this peptide [4]: 113 | normalised SPOT signal, Boehringer light units (BLU); mean over the file's lines of this peptide [5]: 111
B9: YBR026C 71-84 (peptide)
chain: GVYPSRPEKTYDYS

normalised SPOT signal, Boehringer light units (BLU); mean over the file's lines of this peptide [1]: 55.8 | normalised SPOT signal, Boehringer light units (BLU); mean over the file's lines of this peptide [2]: 3120 | normalised SPOT signal, Boehringer light units (BLU); mean over the file's lines of this peptide [3]: 6370 | normalised SPOT signal, Boehringer light units (BLU); mean over the file's lines of this peptide [4]: 2360 | normalised SPOT signal, Boehringer light units (BLU); mean over the file's lines of this peptide [5]: 10300
B12: YOR181W 384-397 (peptide)
chain: GPAPPPPPRASRPT

normalised SPOT signal, Boehringer light units (BLU); mean over the file's lines of this peptide [1]: 38.5 | normalised SPOT signal, Boehringer light units (BLU); mean over the file's lines of this peptide [2]: 26.2 | normalised SPOT signal, Boehringer light units (BLU); mean over the file's lines of this peptide [3]: 637 | normalised SPOT signal, Boehringer light units (BLU); mean over the file's lines of this peptide [4]: 180 | normalised SPOT signal, Boehringer light units (BLU); mean over the file's lines of this peptide [5]: 163
B13: YGR080W 307-320 (peptide)
chain: GSNPDLPNKSNLKF

normalised SPOT signal, Boehringer light units (BLU); mean over the file's lines of this peptide [1]: 55.7 | normalised SPOT signal, Boehringer light units (BLU); mean over the file's lines of this peptide [2]: 32.3 | normalised SPOT signal, Boehringer light units (BLU); mean over the file's lines of this peptide [3]: 21.5 | normalised SPOT signal, Boehringer light units (BLU); mean over the file's lines of this peptide [4]: 81.1 | normalised SPOT signal, Boehringer light units (BLU); mean over the file's lines of this peptide [5]: 21.6
B14: YEL050C 256-269 (peptide)
chain: GITPVGPGKFSRSA

normalised SPOT signal, Boehringer light units (BLU); mean over the file's lines of this peptide [1]: 58.9 | normalised SPOT signal, Boehringer light units (BLU); mean over the file's lines of this peptide [2]: 59.1 | normalised SPOT signal, Boehringer light units (BLU); mean over the file's lines of this peptide [3]: 68.2 | normalised SPOT signal, Boehringer light units (BLU); mean over the file's lines of this peptide [4]: 47.7 | normalised SPOT signal, Boehringer light units (BLU); mean over the file's lines of this peptide [5]: 55.1
B15: YGL009C 340-353 (peptide)
chain: GLEPNTPLKSIKVD

normalised SPOT signal, Boehringer light units (BLU); mean over the file's lines of this peptide [1]: 140 | normalised SPOT signal, Boehringer light units (BLU); mean over the file's lines of this peptide [2]: 83.3 | normalised SPOT signal, Boehringer light units (BLU); mean over the file's lines of this peptide [3]: 11500 | normalised SPOT signal, Boehringer light units (BLU); mean over the file's lines of this peptide [4]: 1070 | normalised SPOT signal, Boehringer light units (BLU); mean over the file's lines of this peptide [5]: 86.8
B16: YBL007C 192-205 (peptide)
chain: GPPPAMPARPTATT

normalised SPOT signal, Boehringer light units (BLU); mean over the file's lines of this peptide [1]: 236 | normalised SPOT signal, Boehringer light units (BLU); mean over the file's lines of this peptide [2]: 286 | normalised SPOT signal, Boehringer light units (BLU); mean over the file's lines of this peptide [3]: 12000 | normalised SPOT signal, Boehringer light units (BLU); mean over the file's lines of this peptide [4]: 407 | normalised SPOT signal, Boehringer light units (BLU); mean over the file's lines of this peptide [5]: 59.3
B22: YJR126C 478-491 (peptide)
chain: GWKPLRPIKLISWD

Source: PMC314469, “Protein Interaction Networks by Proteome Peptide Scanning” (PLoS Biology, 2004)
